We go through one substance from US20050013867A1, “Use of proton sequestering agents in drug formulations” (priority 2001, published 2005).

Like-named read-outs stand apart in the source and are kept apart here.

A short description of data set [1]: Degradation rate of parathyroid hormone in solution ± disodium citrate, by high pressure liquid chromatography. The data set is classed as physicochemical. The following applies: 1 mg/mL parathyroid hormone ± disodium citrate, pH 3, 40° C. How it is done:
Determine the degradation rates of parathyroid hormone (1 mg/mL; 0.24 mM)±disodium citrate at pH 3 at 40° C. In separate aliquots, incubate with the following amounts of disodium citrate ([…]; 57.3 μg/mL, 0.24 mM; and 5.73 μg/mL, 0.024 mM). Include a control aliquot containing parathyroid hormone lacking disodium citrate. High pressure liquid chromatography is used to measure the degradation of parathyroid hormone at various time points.

For data set [2] the following is noted: aqueous solution, general indicator of proton affinity, cited from earlier work.

Turning to parathyroid hormone, in data set [1], the “retention of activity (degradation by HPLC)” value is on record as “retains more activity in the citrate solution”. Further, the results for the “pKa of C-terminal carboxylate” value in data set [2] and in data set [2] (listed as PTH) were “≈ 3.5” and 3.5, respectively. The “pKa of carboxylate sidechains of aspartic and glutamic acid” value in data set [2] is listed as “≈ 4.8”; in data set [2] (listed as PTH), 4.8.
